From the DeepSol protein solubility set

Test: soluble on expression in E. coli; label from the status in PepcDB or PDB records
For “MNQFYKRHFLRLLDFTPAEIIALLDLATELKKDKKSGCEQQKLVGKNIALIFEKDSTRTRCSFEVAAYDQGARVTYLGPGGSQIGHKESIKDTARVLGRMYDGIQYRGYGQRVVETLAEFAGVPVWNGLTDEFHPTQLLADLLTMREHLPNKSLNKMTLAYLGDTRNNMGNSLLEAAALVGMDLRLVAPKACWPEEAFVISCQALAQKTGGKITLTEDIAEGVNGADFLYTDVWVSMGEPKEVWQERINLLKPYQVNMRVLTLTGNPQVKFLHCLPAFHDDQTTIGKQMAEQYDLPGGMEVTEEVFESAHSIVFDQAENRLHTIKAVMVATMSKI”, the “soluble on expression in E. coli” value was “not soluble”.
With “SERRLGVRAWVKENRGSFQPPVCNKLMHQEQLKVMFIGGPNTRKDYHIEEGEEVFYQLEGDMVLRVLEQGKHRDVVIRQGEIFLLPARVPHSPQRFANTVGLVVERRRLETELDGLRYYVGDTMDVLFEKWFYCKDLGTQLAPIIQEFFSSEQYRTGKPIPDQLLKEPPFPLSTRSIMEPMSLDAWLDSHHRELQAGTPLSLFGDTYETQVIAYGQGSSEGLRQNVDVWLWQLEGSSVVTMGGRRLSLAPDDSLLVLAGTSYAWERTQGSVALSVTQDPACKKPLG” the “soluble on expression in E. coli” value was “soluble”.
For “MAHHHHHHMALYIIGLGLGDERDVSVRGKELIEMSDVVYLESYTSVLFVSKNALEEFYKKNIKEVDRNFAEENCEEILEEAVNKKVSFLVVGDPLCATTHHDIILRAKKKNINVQVIHNASIMSAIGESGMQLYNFGQTVSIPYFEETYKPTSFYDKIKVNLDNNFHTLCLLDIKVKERTIENLMKNKNIYEPPRYMTINEAIEQLLYCEEVHKKNVITDNTRGIAIVRIGSNSQQIVSGNLLTLKTIKYNDPLHSLIICAPTLHDVEREYFDMYMHK”, the “soluble on expression in E. coli” value was “not soluble”.
In the case of “MSCVHYKFSSKLNYDTVTFDGLHISLCDLKKQIMGREKLKAADCDLQITNAQTKEEYTDDNALIPKNSSVIVRRIPIGGVKSTSKTYVISRTEPAMATTKAIDDSSASISLAQLTKTANLAEANASEEDKIKAMMSQSGHEYDPINYMKKPLGPPPPSYTCFRCGKPGHYIKNCPTNGDKNFESGPRIKKSTGIPRSFMMEVKDPNMKGAMLTNTGKYAIPTIDAGRLLFHKLGTMGHKQIDTYFWNRGDVYGATATQITHLREAYAIGKKEKPPFLPEEPSSSSEEDDPIPDELLCLICKDIMTDAVVIPCCGNSYCDECIRTALLESDEHTCPTCHQNDVSPDALIANKFLRQAVNNFKNETGYTKRLRKQLPPPPPPIPPPRPLIQRNLQPLMRSPISRQQDPLMIPVTSSSTHPAPSISSLTSNQSSLAPPVSGNPSSAPAPVPDITATVSISVHSEKSDGPFRDSDNKILPAAALASEHSKGTSSIAITALMEEKGYQVPVLGTPSLLGQSLLHGQLIPTTGPVRINTARPGGGRPGWEHSNKLGYLVSPPQQIRRGERSCYRSINRGRHHSERSQRTQGPSLPATPVFVPVPPPPLYPPPPHTLPLPPGVPPPQFSPQFPPGQPPPAGYSVPPPGFPPAPANLSTPWVSSGVQTAHSNTIPTTQAPPLSREEFYREQRRLKEEEKKKSKLDEFTNDFAKELMEYKKIQKERRRSFSRSKSPYSGSSYSRSSYTYSKSRSGSTRSRSYSRSFSRSHSRSYSRSPPYPRRGRGKSRNYRSRSRSHGYHRSRSRSPPYRRYHSRSRSPQAFRGQSPNKRNVPQGETEREYFNRYREVPPPYDMKAYYGRSVDFRDPFEKERYREWERKYREWYEKYYKGYAAGAQPRPSANRENFSPERFLPLNIRNSPFTRGRREDYVGGQSHRSRNIGSNYPEKLSARDGHNQKDNTKSKEKESENAPGDGKGNKHKKHRKRRKGEESEGFLNPELLETSRKSREPTGVEENKTDSLFVLPSRDDATPVRDEPMDAESITFKSVSEKDKRERDKPKAKGDKTKRKNDGSAVSKKENIVKPAKGPQEKVDGERERSPRSEPPIKKAKEETPKTDNTKSSSSSQKDEKITGTPRKAHSKSAKEHQETKPVKEEKVKKDYSKDVKSEKLTTKEEKAKKPNEKNKPLDNKGEKKKKK”, the “soluble on expression in E. coli” value is reported as “soluble”.
With “MAEKSCSLTEFVGTAIGDTLGLVIANVDTALLDAMKLEKRYRSIGILGARTGAGPHIMAADEAVKATNTEVVSIELPRDTKGGAGHGSLIILGGNDVSDVKRGIEVALKELDRTFGDVYGNEAGHIELQYTARASYALEKAFGAPIGRACGIIVGAPASVGVLMADTALKSANVEVVAYSSPAHGTSFSNEAILVISGDSGAVRQAVTSAREIGKTVLATLGSEPKNDRPSYI” the “soluble on expression in E. coli” value was “not soluble”.
With “MAYETFAFVYDEVMDESLYQKWLDFSNRHLPQGTQQILEMACGTGALAVDFAKSGYDVTALDLSEEMLMIASERAFEEEVPVQFVQGNMLDLSEVGQYQAITCFSDSLCYMANRQEVQQVFDEVYQALEEEGTFIFDVHSTYKIDSVFPEYSYHYQTEEFAFLWDSYAGEKEHSIEHFLTFFVKEQETDEHFVRYDELHQERTYSLDNYLRMLESAGFMNVKVYADFTDEAPTETSERWFFVCQRD” the “soluble on expression in E. coli” value was “not soluble”.
With “MPATNDGPDDGAHLSKSEQTRALILETAMRLFQERGYDRTTMRAIAQEAGVSVGNAYYYFAGKEHLIQGFYDRIAAEHRAAVREVLARETDLEARLAGVLKVWLDIATPYHEFAVQFFKNAADPDSPLSPFSPESEHARVEAIGIHRAVLAGAKTKVPEELRDILPELMWLSQMGLVLYWIFDRTEGRERSYRLAERGARLTARGVVLARFRVLRPLVREVHELFTDFLPGMTKVMPDPAKKPTRDAGPQA” the “soluble on expression in E. coli” value was “soluble”.
For “MRILFIGDVVGSPGRDMVKEYVPKLKTKYKPHFTIINGENAAHGKGLTEKIYHSLIQSGADAITMGNHTWDKKEIFDFIDDVPNLVRPANFPEGTPGKGITYVKANGKELAVINLQGRTFLPPLDDPFLKADELSPEAAKRTPYIFIDFHAEATSEKLALGWYTDGRASAVVGTHTHVQTADNRILPKGTAYITDVGMTGPYDGILGMDRETIIKRFKTNLPVRFTVAEGKTTLSGVVIDIDDQTKKAVKIERILINDDHMFFE”, the “soluble on expression in E. coli” value was “soluble”.
In the case of “MEAYNVQNLYQCLNCDDYHLCNGSLNCDPLVDREGIVCTVTGKYIQCNVRELEHHHHHH”, the “soluble on expression in E. coli” value is reported as “soluble”.
For “MDLSRINTWKSKQLKSFLSSKDAFKADINGHSVLYYAIADNNVRLVCTLLNAGALKNLLDNEFPLHQAATLEDTKIVKILLFSGMDDSQFDDKGNTALYYAVDSGNMQTVKLFVKKNWRLMFYGKTGWKTSFYHAVMLNDVSIVSYFLSEIPSPFDLAILLSCIHTTIKNGHVDMMILLLDYMTSTNTNSLLFIPDIKLAIDNKDIEMLQALFKYDINIYSVNLENVLLDDAEIAKMIIEKHVEYKSDSYTKDLDDVKNNKLDEIISKNEELRLMYVNYVRKNY”, the “soluble on expression in E. coli” value was “not soluble”.
In the case of “MCFINLRSVADTINTQTRRITMFTYYQAENSTAEPALVNAIEQGLRAQHGVVTEDDILMELTKWVEASDNDILSDIYQQTINYVVSGQHPTLLEHHHHHH”, the “soluble on expression in E. coli” value is reported as “not soluble”.
For “DSMADITACPGTDTCNLGISSSTGLSVEIEKMLLEEFPDTVFNKNIKIKISGCMNACGQHTIGNIGFHGMSIKNGTNVLPAMQVMLGGGLEPDGTGTIADKILKLPTRRCVEAVREILTDYDTNATEGEYFNDYYRRQVAAEKMYFYKLLKPLSDLETLTELDYIDL”, the “soluble on expression in E. coli” value was “not soluble”.
In the case of “MGSDKIHHHHHHLKICLSCSARFTDSGWRCPVCFSTPEQVDGFLSFAPAQAKSDEGFQPHHFNELAQAEAEHFWFRSRNRLIIWALHRFFPDARKFLEIGCGTGFVLSGIAQDNPRLEISGSEIHSAGLSHAADRARNATLFQMDARDIPFDSEFDVIGAFDVLEHIEEDSQVLLQMFRAISPGGGMIVTVPQHRFLWSQQDEHACHVRRYEAQELQDKVEKAGFRVEKATSFVSLLLPLMFISRLSKRKPVENYDPTQEFRIKKWVNTILEGILDLERLMIRGRVSFPMGGSRLLIARKPAGA”, the “soluble on expression in E. coli” value is reported as “not soluble”.
For “MTRIISIVSGKGGTGKTTVTANLSVALGEMGRKVLAVDGDLTMANLSLVLGVDDVNITLHDVLAGDAKLEDAIYMTQFENVYILPGAVDWEHVIKADPRKLPEVIKSLKGKYDFILIDCPAGLQLRAMSAMLSGEEAILVTNPEISCLTDTMKVGMVLKKAGLAILGFILNRYGRSERDIPPEAAQDVMDVPLLAVIPEDPVIREGTLEGIPAVKYKPESKGAQAFIKLAEEVDKLAGIKAKI”, the “soluble on expression in E. coli” value was “soluble”.
